Assay results published in publication PMC7954794, “Protein context shapes the specificity of SH3 domain-mediated interactions in vivo” (Nature Communications, 2021).

System: Abp1 PPIs
Assay: DHFR-PCA of Abp1 SH3-swapped baits (Fig. 2B-D, S2C, S2F);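 as to Protein-protein interaction distance between Abp1 SH3-swapped baits, to ABP1: Euclidean distance between DHFR-PCA score profiles of the baits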;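 as to Protein-protein interaction distance between Abp1 SH3-swapped baits, to BEM1-2: Euclidean distance between DHFR-PCA score profiles of the baits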;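 as to Protein-protein interaction distance between Abp1 SH3-swapped baits, to BOI1: Euclidean distance between DHFR-PCA score profiles of the baits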;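 as to Protein-protein interaction distance between Abp1 SH3-swapped baits, to BZZ1-1: Euclidean distance between DHFR-PCA score profiles of the baits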
Type: cell-based, Saccharomyces cerevisiae
Summary of the method: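 Interactions were scored by DHFR protein-fragment complementation. DHFR F[1,2]-tagged Abp1 strains, whose SH3 was swapped for yeast or human ortholog domains, were crossed on YPD at 30 °C for 48 h with a 1536-format array of 575 prey-DHFR F[3] strains and 40 negatives, giving four replicates per pair. PCA selection lasted 4 days after double diploid selection.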

[1] = number of PPIs, difference, Abp1 SH3-swapped with the listed SH3, Fig2D,S2F

B1: MYO5 (protein, UniProt Q04439 1-1219, looked up)
Myosin-5: MAILKRGARKKVHQEPAKRSANIKKATFDSSKKKEVGVSDLTLLSKISDEAINENLKKRFLNATIYTYIGHVLISVNPFRDLGIYTDAVMNEYKGKNRLEVPPHVFAIAESMYYNMKSYNENQCVIISGESGAGKTEAAKRIMQYIAAASSTHTESIGKIKDMVLATNPLLESFGCAKTLRNNNSSRHGKYLEIKFNNQFEPCAGNITNYLLEKQRVVSQIKNERNFHIFYQFTKGASDAYRQTFGVQKPEQYVYTAAAGCISAETIDDLQDYQETLKAMRVIGLGQEEQDQIFRMLAAILWIGNVSFIENEEGNAQVRDTSVTDFVAYLLQIDSQLLIKSLVERIMETNHGMKRGSVYHVPLNIVQADAVRDALAKAIYNNLFDWIVSRVNKSLQAFPGAEKSIGILDIYGFEIFEHNSFEQICINYVNEKLQQIFIQLTLKSEQETYEREKIQWTPIKYFDNKVVCDLIEARRPPGIFAAMNDSVATAHADSNAADQAFAQRLNLFTTNPHFDLRSNKFVIKHYAGDVTYDIDGITDKNKDQLQKDLVELIGTTTNTFLATIFPDTVDRESKRRPPTAGDKIIKSANDLVETLSKAQPSYIRTIKPNETKSPNDYDDRQVLHQIKYLGLQENVRIRRAGFAYRQVFEKFVERFYLLSPHCSYAGDYTWQGDTLDAVKYILQDSSIPQQEYQLGVTSVFIKTPETLFALEHMRDRYWHNMAARIQRAWRRFLQRRIDAATKIQRTIRERKEGNKYEKLRDYGTKVLGGRKERRSMSLLGYRAFMGDYLSCNESKSKGAYIKRQVSIKEKVIFSIHGEALHTKFGRSAQRLKKTFLLTPTTLYIVGQTLVQNAMTYTQDYKIDVRNIQAVSLTNLQDDWVAIKLASSGQPDPLINTYFKTELITHLKRLNDKIQIKIGSAIEYQKKPGKLHSVKCQINESAPKYGDIYKSSTISVRRGNPPNSQVHKKPRKKSSISSGYHASSSQATRRPVSIAAAQHVPTAPASRHSKKPAPPPPGMQNKAATRRSVPNPASTLTASQSNARPSPPTAATRATPAATPAAAAMGSGRQANIPPPPPPPPPSSKPKEPMFEAAYDFPGSGSPSELPLKKGDVIYITREEPSGWSLGKLLDGSKEGWVPTAYMKPHSGNNNIPTPPQNRDVPKPVLNSVQHDNTSANVIPAAAQASLGDGLANALAARANKMRLESDDEEANEDEEEDDW
Abp1 bait with swapped SH3, distance to bait with ABP1 SH3, sheet Fig2C
  Protein-protein interaction distance between Abp1 SH3-swapped baits, to ABP1: 12.37
Distance to Abp1 bait with BBC1 SH3, sheet Fig2C
  Protein-protein interaction distance between Abp1 SH3-swapped baits, to BBC1: 12.56
Distance to Abp1 bait with BEM1-1 SH3, sheet Fig2C
  Protein-protein interaction distance between Abp1 SH3-swapped baits, to BEM1-1: 17.04
Distance to Abp1 bait with BEM1-2 SH3, sheet Fig2C
  Protein-protein interaction distance between Abp1 SH3-swapped baits, to BEM1-2: 34.62
Distance to Abp1 bait with BOI1 SH3, sheet Fig2C
  Protein-protein interaction distance between Abp1 SH3-swapped baits, to BOI1: 14.33
Distance to Abp1 bait with BOI2 SH3, sheet Fig2C
  Protein-protein interaction distance between Abp1 SH3-swapped baits, to BOI2: 17.59
Distance to Abp1 bait with BUD14 SH3, sheet Fig2C
  Protein-protein interaction distance between Abp1 SH3-swapped baits, to BUD14: 20.27
Distance to Abp1 bait with BZZ1-1 SH3, sheet Fig2C
  Protein-protein interaction distance between Abp1 SH3-swapped baits, to BZZ1-1: 9.674
Distance to Abp1 bait with BZZ1-2 SH3, sheet Fig2C
  Protein-protein interaction distance between Abp1 SH3-swapped baits, to BZZ1-2: 13.83
Distance to Abp1 bait with CDC25 SH3, sheet Fig2C
  Protein-protein interaction distance between Abp1 SH3-swapped baits, to CDC25: 28.8
Distance to Abp1 bait with CTTN SH3, sheet Fig2C
  Protein-protein interaction distance between Abp1 SH3-swapped baits, to CTTN: 14.85
Distance to Abp1 bait with CYK3 SH3, sheet Fig2C
  Protein-protein interaction distance between Abp1 SH3-swapped baits, to CYK3: 29.49
Distance to Abp1 bait with DBNL SH3, sheet Fig2C
  Protein-protein interaction distance between Abp1 SH3-swapped baits, to DBNL: 9.722
Distance to Abp1 bait with FUS1 SH3, sheet Fig2C
  Protein-protein interaction distance between Abp1 SH3-swapped baits, to FUS1: 21.47
Distance to Abp1 bait with HCLS1 SH3, sheet Fig2C
  Protein-protein interaction distance between Abp1 SH3-swapped baits, to HCLS1: 10.37
Distance to Abp1 bait with HOF1 SH3, sheet Fig2C
  Protein-protein interaction distance between Abp1 SH3-swapped baits, to HOF1: 33.29
Distance to Abp1 bait with HSE1 SH3, sheet Fig2C
  Protein-protein interaction distance between Abp1 SH3-swapped baits, to HSE1: 10.84
Distance to Abp1 bait with LSB1 SH3, sheet Fig2C
  Protein-protein interaction distance between Abp1 SH3-swapped baits, to LSB1: 7.822
Distance to Abp1 bait with LSB3 SH3, sheet Fig2C
  Protein-protein interaction distance between Abp1 SH3-swapped baits, to LSB3: 8.063
Distance to Abp1 bait with MYO3 SH3, sheet Fig2C
  Protein-protein interaction distance between Abp1 SH3-swapped baits, to MYO3: 5.861
Distance to Abp1 bait with MYO5 SH3, sheet Fig2C
  Protein-protein interaction distance between Abp1 SH3-swapped baits, to MYO5: 0.00
Distance to Abp1 bait with NBP2 SH3, sheet Fig2C
  Protein-protein interaction distance between Abp1 SH3-swapped baits, to NBP2: 19.41
Distance to Abp1 bait with PEX13 SH3, sheet Fig2C
  Protein-protein interaction distance between Abp1 SH3-swapped baits, to PEX13: 7.969
Distance to Abp1 bait with PIN3 SH3, sheet Fig2C
  Protein-protein interaction distance between Abp1 SH3-swapped baits, to PIN3: 6.67
Distance to Abp1 bait with RVS167 SH3, sheet Fig2C
  Protein-protein interaction distance between Abp1 SH3-swapped baits, to RVS167: 7.689
Distance to Abp1 bait with SDC25 SH3, sheet Fig2C
  Protein-protein interaction distance between Abp1 SH3-swapped baits, to SDC25: 35.29
Distance to Abp1 bait with SHO1 SH3, sheet Fig2C
  Protein-protein interaction distance between Abp1 SH3-swapped baits, to SHO1: 10.26
Distance to Abp1 bait with SLA1-1 SH3, sheet Fig2C
  Protein-protein interaction distance between Abp1 SH3-swapped baits, to SLA1-1: 31.36
Distance to Abp1 bait with SLA1-2 SH3, sheet Fig2C
  Protein-protein interaction distance between Abp1 SH3-swapped baits, to SLA1-2: 22.13
Distance to Abp1 bait with SLA1-3 SH3, sheet Fig2C
  Protein-protein interaction distance between Abp1 SH3-swapped baits, to SLA1-3: 7.257
Distance to Abp1 bait with YSC84 SH3, sheet Fig2C
  Protein-protein interaction distance between Abp1 SH3-swapped baits, to YSC84: 8.128
[1]
  PPIs gained by Abp1 - SH3-dependent PPIs gained by Abp1: 27
  SH3-dependent PPIs - SH3-dependent PPIs gained by Abp1: 16
Number of PPIs, Abp1 SH3-swapped with the listed SH3, DHFR-PCA, Fig2D,S2F
  SH3-dependent PPIs gained by Abp1: 3
